The results in this text go back to patent US20060134122A1, “Peptides of syndecan-1 for inhibition of cancer” (priority 2004, published 2006).

Common to all, as to assay type: cell-based
One assay has as its target T1, αvβ3 integrin (Homo sapiens, UniProt P05106+P06756).
T1 construct: endogenous in cells; host or cells: MDA-MB-435 (A4) and MDA-MB-231 (A5) human mammary carcinoma cells
As to the kind of experiment: WOW1 Fab binding (activated αvβ3 integrin), MDA-MB-435. Conditions: cells adherent to mAb B-B4; 20 μM GST-mS1ED. On the procedure: (§1) FIGS. 2A-C—Sdc-1 adhesion-mediated cell spreading correlates with αvβ3 integrin. expression and activity. (FIG. 2A) FACS analysis of αvβ3 integrin expression (mAb LM609) in human mammary carcinoma cells against an IgG isotype control. (FIG. 2B) Depicted on split panels are phalloidin-stained MDA-MB-435 (upper half) and MCF-7 (lower half) cells 2 h after plating on wells coated with mAb B-B4 in plating medium alone or medium containing either 30 μg/mL mAb LM609, 1 μg/mL mAb 13 or 20 μM GST-mS1ED. Bar, 50 μm. (FIG. 2C) Untreated MDA-MB-435, MDA-MB-231 and MCF-7 cells (columns 1 and 4) and cells pretreated in suspension with 1 μg/mL mAb 13 (columns 2 and 3) were seeded on wells coated with either mAb B-B4 or COL I in plating medium alone (columns 1, 2 and 4) or medium containing 20 μM GST-mS1ED (column 3). Cells were incubated at 37° C. for 2 h, fixed, permeabilized and stained with WOW1 and an Alexa 488-conjugated secondary. Panel insets are corresponding phase contrast pictures. Bar, 20 μm.
To verify that cell spreading induced upon Sdc-1 ligation correlates with αvβ3activation, the inventors relied upon binding of the ligand-mimetic WOW1 mouse Fab—a probe that detects activated, but unligated αvβ3 integrin. MDA-MB-435 cells adherent to mAb B-B4 display strong binding of WOW1 both centrally and within puncta at the spreading margin of cells (FIG. 2C). […]

Assay [1] has as its system MDA-MB-435 human mammary carcinoma cells. Nature of the assay: Cell spreading assay, MDA-MB-435. Conditions: 2 h, GST-mS1ED 20 μM; for cell spreading on VN: 10 μg/mL VN, LM609 30 μg/mL. Here is the method:
as §1
FIG. 3—MDA-MB-435, but not MCF-7, human carcinoma cells display functional coupling of Sdc-1 and αvβ3 integrins on VN. Depicted are phalloidin-stained cells 2 h after plating on wells coated with 10 μg/mL VN (upper half) or FN (lower half) in plating medium alone or medium containing either 30 μg/mL mAb LM609, 25 μg/mL mAb 13, 20 μM GST-mS1ED or -mS4ED. Bar, 50 μm.
Sdc-1 adhesion-mediated cell spreading correlates with αvβ3 integrin expression and activity. To test whether the αvβ3 integrin's dependence on Sdc-1 extends to other carcinoma cells, the inventors screened a panel of human carcinoma cells with mAb LM609 using FACS analysis. […] To test the collaboration between Sdc-1 and αvβ3 integrin when cells are adherent via Sdc-1, MDA-MB-435 and MCF-7 cells were plated on wells coated with hS1-specific mAb B-B4. While αvβ3-positive MDA-MB-435 cells spread on this antibody substratum, their spreading is blocked (similar to results obtained in the MDA-MB-231; Beauvais and Rapraeger, 2003) by treatment with either mAb LM609 (added either before plating or 30 min after plating, when cells have already begun to spread) or GST-mS1ED protein (which is not recognized by mAb B-B4).
MDA-MB-435, but not MCF-7, human carcinoma cells display functional coupling of Sdc-1 and αvβ3 integrin on VN. To test whether activation of αvβ3 integrin activation on matrix is also functionally coupled to Sdc-1, MDA-MB-435 and MCF-7 cells were plated on either VN or FN (FIG. 3). MDA-MB-435 cells spread on VN and require αvβ3 integrins for this activity as spreading is blocked by mAb LM609. […]

The test system of assay [2] is Human aortic endothelial cells (HAEC). As to the kind of experiment: HAEC spreading on VN. Conditions: 1-10 uM GST-mS1ED. On the procedure:
FIG. 13—Human aortic endothelial cells rely on αvβ3 and αvβ5 integrins for spreading on VN. Human aortic endothelial cells (HAECs) were suspended and replated on 10 μg/ml VN in the presence of integrin inhibitory antibodies mAb 13 (specific for β1-containing integrins; this will inhibit the αvβ1 integrin), LM609 (specific for the αvβ3 integrin) and P1F6 (specific for the αvβ5 integrin), or combinations of these antibodies. After 2 hr, the cells were fixed, stained with Alexa488-conjugated phalloidin to aid in visualization, and observed by fluorescence microscopy to document integrin-dependent spreading. Inhibition of spreading requires simultaneous inhibition of both the αvβ3 and αvβ5 integrins.
FIG. 15—αvβ3 and αvβ5 integrin-mediated spreading of human aortic endothelial cells on VN is disrupted by recombinant syndecan-1 ectodomain fusion protein. HAECs are plated on VN in the presence of no competitor, 1-10 uM GST-mS1ED (recombinant mouse syndecan-1 ectodomain expressed as a fusion protein with GST) or GST alone.
FIG. 16—Inhibition of HAEC spreading on VN by silencing of Sdc-1. HAECs were transfected with a range of concentrations of siRNA specific for human Sdc1 (hS1), which achieves 80-88% silencing at 100-200 nM, as shown by flow cytometry using human Sdc-1 mAb B-B4. The cells treated with 200 nM siRNA were also plated on VN for 2 hr and display a 60% reduction in cell spreading. […]

T1 sequence (P06756 31-889 limits assumed): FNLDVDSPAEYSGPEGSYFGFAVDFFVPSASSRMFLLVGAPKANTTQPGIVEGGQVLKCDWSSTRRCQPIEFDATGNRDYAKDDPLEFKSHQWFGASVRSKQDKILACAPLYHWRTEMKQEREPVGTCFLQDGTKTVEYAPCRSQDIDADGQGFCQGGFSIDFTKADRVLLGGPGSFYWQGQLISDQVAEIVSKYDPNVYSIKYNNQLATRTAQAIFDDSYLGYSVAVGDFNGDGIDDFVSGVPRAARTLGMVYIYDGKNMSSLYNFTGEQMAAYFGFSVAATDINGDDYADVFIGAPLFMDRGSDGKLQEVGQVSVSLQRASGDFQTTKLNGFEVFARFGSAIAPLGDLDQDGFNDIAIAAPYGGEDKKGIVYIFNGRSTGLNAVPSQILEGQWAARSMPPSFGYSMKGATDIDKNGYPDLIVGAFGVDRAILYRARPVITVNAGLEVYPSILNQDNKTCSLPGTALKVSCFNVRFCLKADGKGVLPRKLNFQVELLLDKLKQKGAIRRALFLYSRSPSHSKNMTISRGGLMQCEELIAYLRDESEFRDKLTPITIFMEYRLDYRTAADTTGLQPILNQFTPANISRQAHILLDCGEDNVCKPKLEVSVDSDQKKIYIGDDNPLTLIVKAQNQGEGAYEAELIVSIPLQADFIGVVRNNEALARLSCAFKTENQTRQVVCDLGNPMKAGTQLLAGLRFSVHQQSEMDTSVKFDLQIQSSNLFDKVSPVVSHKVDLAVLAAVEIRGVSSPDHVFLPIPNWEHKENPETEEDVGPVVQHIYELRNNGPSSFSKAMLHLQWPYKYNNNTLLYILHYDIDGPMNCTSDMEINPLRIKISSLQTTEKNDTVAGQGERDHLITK
T1 sequence (P06756 891-1048 limits assumed): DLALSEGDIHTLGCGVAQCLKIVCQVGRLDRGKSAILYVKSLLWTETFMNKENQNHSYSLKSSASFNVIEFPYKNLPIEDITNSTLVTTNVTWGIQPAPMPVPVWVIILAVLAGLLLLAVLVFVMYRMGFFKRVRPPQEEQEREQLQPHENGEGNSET
T1 sequence (P05106 27-788): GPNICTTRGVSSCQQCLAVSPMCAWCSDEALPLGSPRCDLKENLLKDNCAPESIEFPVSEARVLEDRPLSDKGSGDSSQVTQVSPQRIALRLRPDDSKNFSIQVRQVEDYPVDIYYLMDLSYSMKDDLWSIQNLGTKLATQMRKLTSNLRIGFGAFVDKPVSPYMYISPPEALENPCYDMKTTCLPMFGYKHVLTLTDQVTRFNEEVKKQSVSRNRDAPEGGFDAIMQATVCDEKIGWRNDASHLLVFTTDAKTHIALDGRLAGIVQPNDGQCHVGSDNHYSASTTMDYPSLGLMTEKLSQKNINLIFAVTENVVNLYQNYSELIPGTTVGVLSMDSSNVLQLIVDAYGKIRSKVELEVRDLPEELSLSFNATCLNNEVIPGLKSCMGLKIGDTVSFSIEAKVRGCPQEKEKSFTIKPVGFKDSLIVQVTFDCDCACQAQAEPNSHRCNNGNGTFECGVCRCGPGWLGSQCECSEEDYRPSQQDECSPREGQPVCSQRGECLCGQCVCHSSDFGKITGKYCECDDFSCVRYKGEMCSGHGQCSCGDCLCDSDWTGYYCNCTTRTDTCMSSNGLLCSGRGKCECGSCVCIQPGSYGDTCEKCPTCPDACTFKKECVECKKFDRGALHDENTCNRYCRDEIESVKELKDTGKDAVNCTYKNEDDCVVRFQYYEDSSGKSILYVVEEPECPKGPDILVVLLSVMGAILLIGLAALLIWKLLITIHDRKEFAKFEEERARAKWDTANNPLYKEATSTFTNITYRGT

B1: GST-mS1ED: recombinant mouse syndecan-1 ectodomain expressed as a fusion protein with GST (protein)
chain: QIVAVNVPPEDQDGSGDDSDNFSGSGTGALPDTLSRQTPSTWKDVWLLTATPTAPEPTSSNTETAFTSVLPAGEKPEEGEPVLHVEAEPGFTARDKEKEVTTRPRETVQLPITQRASTVRVTTAQAAVTSHPHGGMQPGLHETSAPTAPGQPDHQPPRVEGGGTSVIKEVVEDGTANQLPAGEGSGEQDFTFETSGENTAVAAVEPGLRNQPPVDEGATGASQSLLDRKEVLG
modifications: left off: a dimerising Fc or GST
notes: recombinant mouse syndecan-1 ectodomain expressed as a fusion protein with GST
In the case of B1, the “WOW1 binding (αvβ3 activation)” value in the assay with αvβ3 integrin is “WOW1 fails to bind”. In assay [1] (10 μg/mL FN, mAb 13 25 μg/mL), the “cell spreading on FN” value is listed as “retain their ability to spread”. For the same molecule, the “cell spreading on VN” value in assay [1] is given as “fail to spread”. The “cell spreading on mAb B-B4” value in assay [1] (LM609 30 μg/mL (before or 30 min after plating)) is “blocked”. The “αvβ3 and αvβ5 integrin-mediated spreading on VN” value in assay [2] is recorded as “disrupted”.

B2: GST-mS4ED: recombinant GST fusion of mouse syndecan-4 ectodomain, specificity control (protein)
chain: ESIRETEVIDPQDLLEGRYFSGALPDDEDAGGSDDFELSGSGDLDDTEEPRPFPEVIEPLVPLDNHIPENAQPGIRVPSEPKELEENEVIPKRAPSDVGDDMSNKVSMSSTAQGSNIFERTE
modifications: left off: a dimerising Fc or GST
notes: recombinant GST fusion of mouse syndecan-4 ectodomain, specificity control
As to B2, the “cell spreading on VN” value in assay [1] is “no effect”.
